# Source: patent US20210079109A1 (Regeneron, published 2021)
# T1: human CD63 (human, UniProt P08962 2-238)
# T1 construct: stably transfected in NIH3T3/hCD63; The cell line is named under assay; also called hCD63
# T1 sequence: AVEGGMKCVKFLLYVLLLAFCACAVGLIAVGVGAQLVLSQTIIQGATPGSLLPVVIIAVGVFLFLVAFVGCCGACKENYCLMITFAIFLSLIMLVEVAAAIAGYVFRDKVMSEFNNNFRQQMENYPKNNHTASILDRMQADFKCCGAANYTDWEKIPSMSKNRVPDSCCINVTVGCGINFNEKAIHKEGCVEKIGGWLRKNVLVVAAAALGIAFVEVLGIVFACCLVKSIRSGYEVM
# Tests used:
# human CD63 [1] = molecular target: T1, human CD63; test: ECL, LNCAP cells
# Method: (§1) LNCAP cells were determined to have a lower human CD63 copy number than U87MG cells. Non-transfected NIH3T3 cells, which have no detectable expression of human CD63 by fluorescence activated cell sorting (FACS), were included as a negative control.
# (§2) Briefly, cell lines were rinsed once in PBS buffer without Ca²⁺/Mg²⁺ and incubated for 10 minutes at 37° C. with Enzyme Free Cell Dissociation Solution (Millipore, Cat #S-004-C) to detach the cells. Cells were then washed once with PBS with Ca²⁺/Mg²⁺ and counted with a Cellometer™ Auto T4 cell counter (Nexcelom Bioscience, LLC). Approximately 2.0×10⁴ NIH3T3/hCD63, LNCAP, U87MG or NIH3T3 cells were seeded separately onto 96-well carbon electrode plates […]) and were then incubated for one hour at 37° C. Nonspecific binding sites were blocked with 2% BSA (w/v) in PBS with Ca²⁺/Mg²⁺ for one hour at room temperature (RT). Solutions containing anti-CD63 antibodies or isotype control antibodies at a range of concentrations (1.7 pM to 100 nM) in 0.5% BSA (w/v) in PBS with Ca²⁺/Mg²⁺, as well as control buffer alone, were then added in duplicate to the plate-bound NIH3T3/hCD63, LNCAP, U87MG or NIH3T3 cells and incubated for one hour at RT. Plates were subsequently washed to remove unbound antibodies using an AquaMax2000 plate washer with a cell washing head (MDS Analytical Technologies). […] Plates were washed and then incubated with Read Buffer (MSD, Cat #R92TD-2) according to the manufacturer's instructions. Luminescent signals were measured using a SECTOR Imager (MSD).
# human CD63 [2] = molecular target: T1, human CD63; test: ECL, U87MG cells
# Method: as §1, §2
# human CD63 [3] = molecular target: T1, human CD63; test: ECL, NIH3T3/hCD63 cells
# Method: as §1, §2
# [4] = molecular target: T2, recombinant human CD63 extracellular loop 2 expressed with a C-terminal Myc-Myc-hexahistidine (human); test: SPR Biacore, mAb captured, 25C
# T2 construct: also called hCD63 EC loop 2-MMH; human CD63 EC loop 2-MMH
# T2 sequence (chain, as listed by the source limits assumed): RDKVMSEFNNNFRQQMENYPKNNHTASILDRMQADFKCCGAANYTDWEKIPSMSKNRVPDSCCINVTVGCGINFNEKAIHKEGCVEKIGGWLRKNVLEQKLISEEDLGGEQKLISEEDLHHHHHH
# Method: (§3) Equilibrium dissociation constants (KD) for different CD63 (EC2) loop reagents binding to purified anti-CD63 monoclonal antibodies were determined using a real-time surface plasmon resonance based Biacore T200 biosensor or Biacore 2000 biosensor. All binding studies were performed in 10 mM HEPES, 150 mM NaCl, 3 mM EDTA, and 0.05% v/v Surfactant Tween-20, pH 7.4 (HBS-ET) running buffer at 25° C. and 37° C. The Biacore CMS sensor chip surface was first derivatized by amine coupling with either a rabbit anti-mouse Fc specific polyclonal antibody (GE Healthcare, Cat #BR100838) or an anti-human Fab kit (GE Healthcare, Cat #28958325) to capture anti-CD63 monoclonal antibodies. […] The association rate (Kₐ) and dissociation rate (kd) were determined by fitting the real-time binding sensorgrams to a 1:1 binding model with mass transport limitation using Scrubber 2.0c curve-fitting software. Binding dissociation equilibrium constant (KD) and dissociative half-life (t½) were calculated from the kinetic rates as: […]
# (§4) Binding kinetics parameters for human CD63 EC loop 2 protein binding to different anti-CD63 monoclonal antibodies of the invention at 25° C. and 37° C. are shown in Tables 6 through 9.
# [5] = molecular target: T3, recombinant human CD63 extracellular loop 2 expressed with a C-terminal human Fc tag (human); test: SPR Biacore, mAb captured, 25C
# T3 construct: also called hCD63 EC loop 2-hFc; human CD63 EC loop 2-Fc
# T3 sequence (chain, as listed by the source limits assumed): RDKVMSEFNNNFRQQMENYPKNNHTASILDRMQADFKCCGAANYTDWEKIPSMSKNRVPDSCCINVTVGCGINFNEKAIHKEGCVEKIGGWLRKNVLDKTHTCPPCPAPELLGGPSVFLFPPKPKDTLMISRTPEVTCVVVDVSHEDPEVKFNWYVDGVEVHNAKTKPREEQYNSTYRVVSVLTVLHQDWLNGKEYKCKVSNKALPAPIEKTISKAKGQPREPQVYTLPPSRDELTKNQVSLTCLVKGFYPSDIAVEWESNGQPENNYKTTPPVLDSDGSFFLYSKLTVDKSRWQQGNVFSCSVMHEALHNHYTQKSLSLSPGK
# Method: as §3, §4
# [6] = molecular target: T2, recombinant human CD63 extracellular …; test: SPR Biacore, mAb captured, 37C
# Method: as §3, §4
# [7] = molecular target: T3, recombinant human CD63 extracellular …; test: SPR Biacore, mAb captured, 37C
# Method: as §3, §4
EC50 (human CD63 [1]) [nM],binding ratio at 3.7 nM vs NIH3T3 (human CD63 [1]) [fold],EC50 (human CD63 [2]) [nM],binding ratio at 3.7 nM vs NIH3T3 (human CD63 [2]) [fold],EC50 (human CD63 [3]) [nM],binding ratio at 3.7 nM vs NIH3T3 (human CD63 [3]) [fold],100 nM Ag Bound (RU) [4] [RU],Kd [4] [nM],koff [4] [s⁻¹],kon [4] [M⁻¹ s⁻¹],t1/2 [4] [min],100 nM Ag Bound (RU) [5] [RU],Kd [5] [nM],koff [5] [s⁻¹],kon [5] [M⁻¹ s⁻¹],t1/2 [5] [min],100 nM Ag Bound (RU) [6] [RU],Kd [6] [nM],koff [6] [s⁻¹],kon [6] [M⁻¹ s⁻¹],Binder,other results
0.75,4,1.4,50,0.38,61,27,9.36,0.000553,59100,21,59,1.76,0.000144,81800,80,19,76.7,0.00277,36200,"H2M12394N (antibody, V domains shown, also called H2aM12394N) VH: QVQLQESGPGLVKPSETLSLTCTVSGGSISSYYWNWIRQSPGKGLEWIGYTKKRSTNYNPSLRSRVTISEDTSKNQFSLKMSSVTAADTAVYYCAKMGWGSHAFDIWGQGTMVTVSS VL: not shown",t1/2 [6]: 4 min; 100 nM Ag Bound (RU) [7]: 67 RU; Kd [7]: 1.54 nM; koff [7]: 0.000504 s⁻¹; kon [7]: 327000 M⁻¹ s⁻¹; t1/2 [7]: 23 min
0.57,16,0.56,174,0.63,283,51,12.7,0.00144,113000,8,125,0.84,0.000399,477000,29,32,19.5,0.0072,369000,"H1M12362N (antibody, V domains shown) VH: QVQLVESGGGLVKPGGSLRLSCAASGFIFSDYYINWIRQAPGKGLEWVSYTSSSGSTTYYEDSVKGRFTMSRDNARNLVYLQMNSLRAEDTAAYYCVRDLRYNDGLDVWGQGTTVTVSS VL: DILLTQSPSSLSASVGDRVTITCRASQSIRTYLNWYQQKPGRAPKLLVYAASSLQSGVPSRFSGSGSGTDFTLTISSLQPEDFATYFCQQSYDNPPITFGQGTRLAIK",t1/2 [6]: 2 min; 100 nM Ag Bound (RU) [7]: 118 RU; Kd [7]: 0.977 nM; koff [7]: 0.000669 s⁻¹; kon [7]: 685000 M⁻¹ s⁻¹; t1/2 [7]: 17 min
0.25,31,0.3,284,0.52,434,59,0.72,0.000587,815000,20,131,0.238,0.000173,728000,67,60,5.02,0.00327,651000,"H1M12388N (antibody, V domains shown) VH: QVQLEESGGGVVKAGGSLRLSCAASGFTFSDYYINWIRQAPGKGLEWVSYINNGGYTIYYADSVKGRFTMSRDNAKNSVYLQMNGLRAEDTAFYYCVRDPRSYYGFDYWGQGTLVTVSS VL: DIQMTQSPSSLSASVGDRVTITCRASQSISRFLHWYQQKPGKAPKLLIYGASSLQSGVPSRFSGSGSGTDFTLTISTLQPEDFATYYCQQSYSTPPITFGQGTRLEIK",t1/2 [6]: 4 min; 100 nM Ag Bound (RU) [7]: 158 RU; Kd [7]: 0.863 nM; koff [7]: 0.000887 s⁻¹; kon [7]: 1.03e+06 M⁻¹ s⁻¹; t1/2 [7]: 13 min
0.15,18,0.29,172,0.39,228,74,0.994,0.00054,543000,21,164,0.129,0.00011,854000,105,77,5.21,0.00354,679000,"H2M12387N (antibody, V domains shown, also called H2aM12387N) VH: QVQLEESGGGVVKAGGSLRLSCAASGFTFSDYYMNWIRQAPGKGLEWVSYINNGGYTIYYADSVKGRFTMSRDNAKNSVYLQMNGLRAEDTAFYYCVRDPRSYYGFDYWGQGTLVIVSS VL: DIQMTQSPSSLSASVGDRVTITCRASQSISRFLHWYQQKPGKAPKLLIYGASSLQSGVPSRFSGSGSGTDFTLTISSLQPEDFATYYCQQSYSTPPITFGQGTRLEIK",t1/2 [6]: 3 min; 100 nM Ag Bound (RU) [7]: 196 RU; Kd [7]: 0.596 nM; koff [7]: 0.000657 s⁻¹; kon [7]: 1.1e+06 M⁻¹ s⁻¹; t1/2 [7]: 18 min
0.29,16,0.31,129,0.52,220,65,0.676,0.000365,540000,32,160,0.173,0.000113,654000,102,65,3.61,0.00235,650000,"H1M12386N (antibody, V domains shown) VH: QVQLEESGGGVVKAGGSLRLSCVASGFTFSDYYINWIRQAPGKGLEWVSYINNGGYTIYYADSVKGRFTMSRDNAKNSVYLEMNGLRAEDTAFYYCVRDPRSYYGFDYWGQGTLVTVSS VL: DIQMTQSPSSLSASVGDRVTITCRASQSISSYLNWNQQKPGKAPKLLIYVASSLQSGVPSRFSGSGSGTDFTLTISGLQPEDFAPYYCQQSYITPPITFGQGTRLDIK",t1/2 [6]: 5 min; 100 nM Ag Bound (RU) [7]: 170 RU; Kd [7]: 0.685 nM; koff [7]: 0.000631 s⁻¹; kon [7]: 921000 M⁻¹ s⁻¹; t1/2 [7]: 18 min
1.8,7,2,107,0.83,310,,,,,,,,,,,,,,,"H1M12366N (antibody, V domains shown, also called H3M12366N) VH: QVQLQESGPGLVKPSETLSLTCTVSGGSISSYYWNWIRQSPEKGLEWIGYIYISGTTNYNPSLKSRVTISVDTFKNQFSLKLNSVTAADTAVYYCARMGLGREAFDIWGQGTMVTVSS VL: not shown",
0.74,37,2,260,0.61,593,35,7.33,0.000596,81300,19,91,1.87,0.000228,122000,51,34,6.98,0.00269,385000,"H2M12452N (antibody, V domains shown, also called H2aM12452N) VH: QVQLQEAGPGLVKPSETLSLTCIVSGGSISGFYWNWIRQPPGKGLEWIGYFLYSGTIDYNPSLKSRVTISVDTSKNQFFLKLSFVTAADTAVYYCVRMGLGANAFDIWGRGTMVTVSS VL: EIVLTQSPGTLSLSPGERATLSCRASQTVSRSFLAWYQQKPGQAPRLLIYGPSSRATGIPDRFSGSGSGTDFTLTISRLEPEDFAVYYCQQYGNSPWTFGQGTKVEIK",t1/2 [6]: 4 min; 100 nM Ag Bound (RU) [7]: 104 RU; Kd [7]: 1.1 nM; koff [7]: 0.000857 s⁻¹; kon [7]: 779000 M⁻¹ s⁻¹; t1/2 [7]: 13 min
